Experimental data from patent US12365732 (23ANDME, dated 2025).
Substitutions are numbered along the chain they refer to. Names may count otherwise.

T1: cynomolgus monkey CD96 on cynomolgus monkey PBMCs (cynomolgus monkey, UniProt A0A2K5TWV6 22-569)
T1 construct: whole, on cells
T1 sequence: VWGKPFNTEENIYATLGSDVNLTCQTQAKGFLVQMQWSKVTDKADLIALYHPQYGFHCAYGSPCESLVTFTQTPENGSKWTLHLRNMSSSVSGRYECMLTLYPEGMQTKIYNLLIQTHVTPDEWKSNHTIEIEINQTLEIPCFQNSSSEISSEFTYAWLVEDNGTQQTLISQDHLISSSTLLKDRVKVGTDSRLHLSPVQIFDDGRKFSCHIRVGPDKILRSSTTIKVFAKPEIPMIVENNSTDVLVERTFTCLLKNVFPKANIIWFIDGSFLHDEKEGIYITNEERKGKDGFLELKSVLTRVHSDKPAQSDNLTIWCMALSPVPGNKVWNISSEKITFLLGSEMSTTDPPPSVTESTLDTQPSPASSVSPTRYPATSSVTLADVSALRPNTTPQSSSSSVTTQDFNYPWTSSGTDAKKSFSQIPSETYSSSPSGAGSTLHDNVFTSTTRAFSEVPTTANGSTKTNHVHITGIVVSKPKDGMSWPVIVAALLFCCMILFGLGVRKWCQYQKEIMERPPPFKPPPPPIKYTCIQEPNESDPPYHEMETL

T2: recombinant hu-CD96 (M1-M503-polyHis) (human, UniProt P40200 22-519)
T2 construct: also called hu-CD96-his
T2 sequence: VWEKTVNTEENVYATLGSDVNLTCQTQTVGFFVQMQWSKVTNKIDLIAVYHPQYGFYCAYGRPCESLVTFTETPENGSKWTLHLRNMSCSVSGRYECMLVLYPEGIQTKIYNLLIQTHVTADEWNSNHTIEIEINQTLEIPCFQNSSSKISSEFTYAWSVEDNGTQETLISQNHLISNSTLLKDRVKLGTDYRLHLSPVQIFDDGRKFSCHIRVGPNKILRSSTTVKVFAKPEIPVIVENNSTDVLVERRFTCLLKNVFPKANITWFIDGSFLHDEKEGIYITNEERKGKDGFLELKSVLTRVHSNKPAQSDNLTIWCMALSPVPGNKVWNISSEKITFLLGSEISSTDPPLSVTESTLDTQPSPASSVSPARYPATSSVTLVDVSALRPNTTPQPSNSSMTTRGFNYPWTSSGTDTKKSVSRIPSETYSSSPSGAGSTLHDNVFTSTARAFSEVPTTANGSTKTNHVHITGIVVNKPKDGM

B1: h10G1 IgG (humanized 10G1) (antibody, V domains shown)
VH: EIQLVQSGSELKKPGASVKVSCKASGYPFTTYGMSWVRQAPGQGLEWMGWINTDSGVPTYADDFKGRFVFSLDTSVSTAYLQISSLKAEDTAVYFCARNIYYGWGNFDYWGQGTLVTVSS
VL: EIVMTQSPDFQSVTPKEKVTITCRASQDIYRNLHWYQQKPDQTPKLLIKHASDSISGIPSRFSGSGSGTDFTLTINSLEAEDAAAYYCLQGYSMPYTFGGGTKVEIKG
notes: human IgG1 N297G
B2: 9H4, purified hybridoma antibody (antibody, V domains shown)
VH: EVQLLETGGGLVKSGGSLKLSCAASGFTFSDYYMYWVRQTPEKRLEWVAAISDDGTYTYYPDSVKGRFTISRDNANNYLYLQMSSLKSEDTAIYYCAKAGSYDYFDVWGAGTTVTVSS
VL: DIVLTQSPASLAVSLGQRAIISCKASQSVTFADTGLMHWYQQKPGQQPKLLIYRASNLEVGVPTRFSGSGSGTDFTLNIHPVEEEDVATYYCQQSREYPWTFGGGTKLEIK
notes: murine hybridoma IgG
B3: 10G1 (clone 10G1.3G8), purified hybridoma antibody (antibody, V domains shown)
VH: QIQLVQSGPELKKPGETVKISCKASGYPFTTYGMSWVKQAPGKGLKWMGWINTDSGVPTYADDFKGRFAFSLETSANTAYLQINSLKNEDAATYFCARNIYYGWGNFDYWGQGTILTVSS
VL: DILMTQSPTTLSVTPGETVSLSCRASQDIYRNLHWYQQKSQGTPRLLIKHASDSISGIPSRFTGSGSGTDFTLSINSVKPEDEGIYYCLQGYSMPYTFGGGTKLEIK
notes: murine hybridoma IgG
B4: 7E5, purified hybridoma antibody (antibody, V domains shown)
VH: QVQLKESGPGLVAPSQSLSIICTVSGFSLTNYGIHWIRQPPGKGLEWLGIIWAGGSTNYNSALMSRLTISKDNSKSQVFLKMNSLQTNDTAIYYCARVSMMGFAYWGQGTLVTVSA
VL: QAVVTQESALTTSPGETVTLTCRSSTGAVTTSNYANWVQEKPDHLFTGLIGGTNNRAPGVPARFSGSLIGDKAALTITGAQTEDEAIYFCSLWYGSHWVFGGGTKLTVL
notes: murine hybridoma IgG
B5: mAb1.v7.NGS9 IgG (antibody, V domains shown)
VH: EVQLVQSGAEVKKPGASVKVSCKASGFTFTNNFMHWVRQAPGQGLEWIGMIHANSGITNINEKFKNRVTMTTDTSTSTAYMELRSLRSEDTAVYYCRSDGVYEGYFDYWGQGTLVTVSS
VL: DIQLTQSPSSLSASVGDRVTITCKASQNVGTAIVWYQQKPGKAPKVLIYSASTRYTGVPSRFSGSGSGTDFTLTISSLQPEDFATYYCQQYSSSPLTFGQGTKVEIKG
notes: human IgG1 N297G
B6: mAb1.v7.NGS10 IgG (antibody, V domains shown)
VH: B5 VH with M50F, V101I
VL: B5 VL
notes: human IgG1 N297G
B7: mAb1.v7.NGS11 IgG (antibody, V domains shown)
VH: B5 VH with M50F
VL: B5 VL
notes: human IgG1 N297G

Columns and labels:
[1] = molecular target: T1, cynomolgus monkey CD96 on cynomolgus …; experiment: FACS, Ab 0.00512 nM
Protocol: The ability of the anti-CD96 antibodies to bind primary immune cells from human and cynomolgus monkey with lower level of receptor expression was measured. Human PBMCs (StemCell Technologies, catalog #70025) and cynomolgus monkey PBMCs (Primate Biologicals, catalog #CM-MC) were incubated with human TruStain FcX (Biolegend, catalog #422302) for 10 minutes at 4° C., followed by incubation with an anti-CD96 antibody for 20 minutes at 4° C. Cells were washed and the anti-CD96 antibody binding was detected by incubation with anti-mouse IgG-PE (Thermo Fisher, catalog #M30204) or anti-human IgG (Fab) 2-PE (Thermo Fisher, catalog #H10104) for 20 minutes at 4° C. Cells were washed, and immune subtypes were labeled with anti-CD3 (BD, catalog #557705), anti-CD4 (Biolegend, catalog #317424) and anti-CD8 (BD, catalog #557760) for 20 minutes at 4° C. Cell binding was analyzed by flow cytometry with a CytoFLEX (Beckman Coulter). Binding curves were calculated as a percentage of cells positive for bound antibody in the cell type of interest.

[2] = molecular target: T2, recombinant hu-CD96 (M1-M503-polyHis); experiment: ELISA, blocks hu-CD96-his binding to coated CD155-hFc
Protocol: (§1) CD96 binding of purified hybridoma antibodies: The hu-CD96 and cy-CD96 antigen binding ELISA was performed on the purified hybridoma antibodies. Briefly, 96-well MAXISORP® flat bottom plates (Thermo Fisher Scientific, Waltham, MA; Cat #439454) were coated overnight at 4° C. with 0.5 µg/mL of hu-CD96D1 D3-hFc and cynomolgus monkey CD96D1 D3-hFc in PBS. After removing the coating solution, unspecific binding was blocked by PBS containing 1% bovine serum albumin (blocking buffer) and incubation at room temperature for one hour. Plates were then washed three times with PBS and 0.05% TWEEN®-20 (wash buffer). Serial dilution of purified antibodies in PBS containing 0.5% BSA and 0.05% Tween 20 (ELISA buffer) was added to individual wells followed by incubation at room temperature for one hour with agitation. Plates were washed three times with wash buffer, then 100 µL/well of anti-mouse IgG-HRP (Thermo Fisher Scientific, Waltham, MA; Cat #626520) in ELISA buffer was added. […] Enzymatic color development was stopped with 50 µL/well of TMB stop solution (VWR/Avantor, Radnor, PA, USA; Cat #95059-200). Plates were analyzed with a SpectraMax i3X plate reader (Molecular Devices LLC, San Jose, CA, USA) at 450 nm.
CD155 receptor blocking of purified hybridoma antibodies: Human CD155 blocking ELISA was performed on purified hybridoma antibodies following the same protocol as described for CD96 (above), except that serial dilution of purified antibodies 50 µL/well (starting at 1 µM, 1:5 dilution) in assay buffer was added into the reaction.

hu-CD96D1 D3-hFc = hu-CD96D1 D3-hFc (human); experiment: ELISA, coated CD96D1D3-hFc
Protocol: as §1

[3] = molecular target: T3, cynomolgus monkey CD96D1 D3-hFc (cynomolgus monkey); experiment: ELISA, coated CD96D1D3-hFc
T3 construct: also called cy-CD96D1 D3
Protocol: as §1

| Binder | % positive [1] [%] | IC50 [2] [nM] | EC50 (hu-CD96D1 D3-hFc) [nM] | binding result [3] | EC50 [3] [nM] |
| --- | --- | --- | --- | --- | --- |
| B1 | 7.4 | – | – | – | – |
| B2 | – | 2.23 | 0.24 | no binding | – |
| B3 | – | 2.59 | 0.03 | – | 0.2 |
| B4 | – | 2.15 | 0.06 | – | 0.53 |
| B5 | 7.1 | – | – | – | – |
| B6 | 9.5 | – | – | – | – |
| B7 | 10.4 | – | – | – | – |
